From patent publication US20230364254A1, “METHODS FOR TREATING CANCERS WITH ANTIBODY DRUG CONJUGATES (ADC) THAT BIND TO 191P4D12 PROTEINS” (priority 2020, published 2023)

Test system: patients with locally advanced or metastatic urothelial cancer
Assay: Same phase 2 study: safety (adverse events, NCI CTCAE v4.03)
Format: in vivo, human
From the text: Safety assessments will be based on the information collected through the safety surveillance process and will include the data from recorded adverse events (AEs) including SAEs, recording of concomitant medication, physical examination findings, cardiac monitoring, and laboratory tests.
The assessment of safety during the course of this study will consist of the surveillance and recording of AEs including SAEs, recording of concomitant medication, and measurements of protocol-specified physical examination findings, cardiac monitoring, and laboratory tests.
AE severity should be graded using the National Cancer Institute's Common Terminology Criteria for Adverse Events (NCI CTCAE), Version 4.03. These criteria are provided in the study manual.
An overview of AEs will provide a tabulation of the incidence of all AEs, treatment-emergent AEs, treatment-related AEs, Grade 3 and higher AEs. SAEs, treatment-related SAEs, deaths, and AEs leading to study treatment discontinuation. Adverse events will be defined as treatment emergent if they are newly occurring or worsened following study treatment.
AEs will be classified by system organ class and preferred tem using the Medical Dictionary for Regulatory Activities (MedDRA) and graded using NCI CTCAE, Version 4.03.
The incidence of AEs will be summarized by system organ class, preferred term, severity and relationship to study drug. In the event of multiple occurrences of the same AE in one patient, the AE will be counted once as the occurrence for the maximum grade. AEs leading to premature discontinuation of study drug will be summarized and listed in the same manner.

[1] = Cohort 1 (N = 125), count (percent)

enfortumab vedotin: Nectin-4 directed ADC: fully human anti-nectin-4 IgG1 kappa antibody (AGS-22C3) conjugated to MMAE via protease-cleavable maleimidocaproyl valine-citrulline linker
AE of special interest, All Grade: Hyperglycemia (Cohort 1 (N = 125)): 20 (16) N (%)
AE of special interest, All Grade: IRR (Cohort 1 (N = 125)): 8 (6.4) N (%)
AE of special interest, All Grade: Ocular Events, Blurred Vision (Cohort 1 (N = 125)): 21 (16.8) N (%)
AE of special interest, All Grade: Ocular Events, Corneal Disorders (Cohort 1 (N = 125)): 18 (14.4) N (%)
AE of special interest, All Grade: Ocular Events, Dry Eye Disorders (Cohort 1 (N = 125)): 51 (40.8) N (%)
AE of special interest, All Grade: Peripheral Neuropathy (Cohort 1 (N = 125)): 70 (56) N (%)
AE of special interest, All Grade: Rash (Cohort 1 (N = 125)): 67 (53.6) N (%)
AE of special interest, ≥Gr 3: Hyperglycemia (Cohort 1 (N = 125)): 10 (8) N (%)
AE of special interest, ≥Gr 3: IRR (Cohort 1 (N = 125)): 1 (0.8) N (%)
AE of special interest, ≥Gr 3: Peripheral Neuropathy (Cohort 1 (N = 125)): 5 (4) N (%)
AE of special interest, ≥Gr 3: Rash (Cohort 1 (N = 125)): 15 (12.0) N (%)
Any TEAEs (Cohort 1 (N = 125)): 125 (100.0) n (%)
Any TEAEs leading to death (Cohort 1 (N = 125)): 7 (5.6) n (%)
Any TEAEs leading to treatment discontinuation (Cohort 1 (N = 125)): 21 (16.8) n (%)
Any grade 3-5 TEAEs (Cohort 1 (N = 125)): 92 (73.6) n (%)
Any serious TEAEs (Cohort 1 (N = 125)): 58 (46.4) n (%)
SAEs (All): Acute kidney injury (Cohort 1 (N = 125)): 4 (3.2) n (%)
SAEs (All): Cellulitis (Cohort 1 (N = 125)): 6 (4.8) n (%)
SAEs (All): Diarrhoea (Cohort 1 (N = 125)): 3 (2.4) n (%)
SAEs (All): Febrile neutropenia (Cohort 1 (N = 125)): 5 (4.0) n (%)
SAEs (All): Nausea (Cohort 1 (N = 125)): 3 (2.4) n (%)
SAEs (All): Overall (Cohort 1 (N = 125)): 59 (47.2) n (%)
SAEs (All): Pneumonia (Cohort 1 (N = 125)): 3 (2.4) n (%)
SAEs (All): Sepsis (Cohort 1 (N = 125)): 4 (3.2) n (%)
SAEs (All): Urinary tract infection (Cohort 1 (N = 125)): 6 (4.8) n (%)
SAEs (Related): Acute kidney injury (Cohort 1 (N = 125)): 1 (0.8) n (%)
SAEs (Related): Cellulitis (Cohort 1 (N = 125)): 2 (1.6) n (%)
SAEs (Related): Diarrhoea (Cohort 1 (N = 125)): 1 (0.8) n (%)
SAEs (Related): Febrile neutropenia (Cohort 1 (N = 125)): 5 (4.0) n (%)
SAEs (Related): Nausea (Cohort 1 (N = 125)): 3 (2.4) n (%)
SAEs (Related): Overall (Cohort 1 (N = 125)): 24 (19.2) n (%)
Treatment-related AE leading to discontinuation: Asthenia (Cohort 1 (N = 125)): 1 (0.8) n (%)
Treatment-related AE leading to discontinuation: Drug eruption (Cohort 1 (N = 125)): 1 (0.8) n (%)
Treatment-related AE leading to discontinuation: Enterocolitis (Cohort 1 (N = 125)): 1 (0.8) n (%)
Treatment-related AE leading to discontinuation: Fatigue (Cohort 1 (N = 125)): 1 (0.8) n (%)
Treatment-related AE leading to discontinuation: Hyperglycaemia (Cohort 1 (N = 125)): 1 (0.8) n (%)
Treatment-related AE leading to discontinuation: Interstitial lung disease (Cohort 1 (N = 125)): 1 (0.8) n (%)
Treatment-related AE leading to discontinuation: Overall (Cohort 1 (N = 125)): 15 (12.0) n (%)
Treatment-related AE leading to discontinuation: Peripheral sensory neuropathy (Cohort 1 (N = 125)): 8 (6.4) n (%)
Treatment-related AE leading to discontinuation: Stevens-Johnson syndrome (Cohort 1 (N = 125)): 1 (0.8) n (%)
Treatment-related TEAEs (Cohort 1 (N = 125)): 117 (93.6) n (%)
Treatment-related TEAEs (all grades): Alopecia (Cohort 1 (N = 125)): 62 (49.6) n (%)
Treatment-related TEAEs (all grades): Anaemia (Cohort 1 (N = 125)): 27 (21.6) n (%)
Treatment-related TEAEs (all grades): Aspartate aminotransferase increased (Cohort 1 (N = 125)): 17 (13.6) n (%)
Treatment-related TEAEs (all grades): Decreased appetite (Cohort 1 (N = 125)): 55 (44.0) n (%)
Treatment-related TEAEs (all grades): Diarrhoea (Cohort 1 (N = 125)): 41 (32.8) n (%)
Treatment-related TEAEs (all grades): Dry eye (Cohort 1 (N = 125)): 25 (20.0) n (%)
Treatment-related TEAEs (all grades): Dry skin (Cohort 1 (N = 125)): 30 (24.0) n (%)
Treatment-related TEAEs (all grades): Dysgeusia (Cohort 1 (N = 125)): 47 (37.6) n (%)
Treatment-related TEAEs (all grades): Fatigue (Cohort 1 (N = 125)): 62 (49.6) n (%)
Treatment-related TEAEs (all grades): Lacrimation increased (Cohort 1 (N = 125)): 21 (16.8) n (%)
Treatment-related TEAEs (all grades): Nausea (Cohort 1 (N = 125)): 50 (40.0) n (%)
Treatment-related TEAEs (all grades): Neutropenia (Cohort 1 (N = 125)): 13 (10.4) n (%)
Treatment-related TEAEs (all grades): Oedema peripheral (Cohort 1 (N = 125)): 15 (12.0) n (%)
Treatment-related TEAEs (all grades): Overall (Cohort 1 (N = 125)): 117 (93.6) n (%)
Treatment-related TEAEs (all grades): Peripheral sensory neuropathy (Cohort 1 (N = 125)): 50 (40.0) n (%)
Treatment-related TEAEs (all grades): Pruritus (Cohort 1 (N = 125)): 32 (25.6) n (%)
Treatment-related TEAEs (all grades): Rash maculo-papular (Cohort 1 (N = 125)): 28 (22.4) n (%)
Treatment-related TEAEs (all grades): Vomiting (Cohort 1 (N = 125)): 19 (15.2) n (%)
Treatment-related TEAEs (all grades): Weight decreased (Cohort 1 (N = 125)): 29 (23.2) n (%)
Treatment-related TEAEs leading to death (Cohort 1 (N = 125)): 0 n (%)
Treatment-related TEAEs leading to treatment discontinuation (Cohort 1 (N = 125)): 15 (12.0) n (%)
Treatment-related TEAEs ≥Grade 3: Acute kidney injury (Cohort 1 (N = 125)): 1 (0.8) n (%)
Treatment-related TEAEs ≥Grade 3: Amylase increased (Cohort 1 (N = 125)): 3 (2.4) n (%)
Treatment-related TEAEs ≥Grade 3: Anaemia (Cohort 1 (N = 125)): 9 (7.2) n (%)
Treatment-related TEAEs ≥Grade 3: Aspartate aminotransferase increased (Cohort 1 (N = 125)): 4 (3.2) n (%)
Treatment-related TEAEs ≥Grade 3: Decreased appetite (Cohort 1 (N = 125)): 1 (0.8) n (%)
Treatment-related TEAEs ≥Grade 3: Diarrhoea (Cohort 1 (N = 125)): 3 (2.4) n (%)
Treatment-related TEAEs ≥Grade 3: Fatigue (Cohort 1 (N = 125)): 8 (6.4) n (%)
Treatment-related TEAEs ≥Grade 3: Febrile neutropenia (Cohort 1 (N = 125)): 5 (4.0) n (%)
Treatment-related TEAEs ≥Grade 3: Hyperglycaemia (Cohort 1 (N = 125)): 5 (4.0) n (%)
Treatment-related TEAEs ≥Grade 3: Hyponatraemia (Cohort 1 (N = 125)): 3 (2.4) n (%)
Treatment-related TEAEs ≥Grade 3: Lipase increased (Cohort 1 (N = 125)): 5 (4.0) n (%)
Treatment-related TEAEs ≥Grade 3: Neutropenia (Cohort 1 (N = 125)): 10 (8.0) n (%)
Treatment-related TEAEs ≥Grade 3: Neutrophil count decreased (Cohort 1 (N = 125)): 3 (2.4) n (%)
Treatment-related TEAEs ≥Grade 3: Overall (Cohort 1 (N = 125)): 70 (56.0) n (%)
Treatment-related TEAEs ≥Grade 3: Peripheral sensory neuropathy (Cohort 1 (N = 125)): 2 (1.6) n (%)
Treatment-related TEAEs ≥Grade 3: Pruritus (Cohort 1 (N = 125)): 2 (1.6) n (%)
Treatment-related TEAEs ≥Grade 3: Rash erythematous (Cohort 1 (N = 125)): 4 (3.2) n (%)
Treatment-related TEAEs ≥Grade 3: Rash maculo-papular (Cohort 1 (N = 125)): 5 (4.0) n (%)
Treatment-related grade 3-5 TEAEs (Cohort 1 (N = 125)): 70 (56.9) n (%)
Treatment-related serious TEAEs (Cohort 1 (N = 125)): 24 (19.2) n (%)
TEAEs leading to death (excluding disease progression): Acute respiratory failure [1]: 1 (0.8)
TEAEs leading to death (excluding disease progression): Cardiac disorder [1]: 1 (0.8)
TEAEs leading to death (excluding disease progression): Overall [1]: 4 (3.2)
TEAEs leading to death (excluding disease progression): Pneumonia aspiration [1]: 1 (0.8)
TEAEs leading to death (excluding disease progression): Sepsis [1]: 1 (0.8)
AE of special interest, All Grade: Hyperglycemia (Cohort 2 (N = 89)): 16 (18) N (%)
AE of special interest, All Grade: IRR (Cohort 2 (N = 89)): 6 (6.7) N (%)
